The text below walks through data of publication PMC4006364 (Nature chemical biology, 2014).

Residue numbers refer to the chain shown, from its start. Where two headings read alike, the source gives them in different places.

For one series, the target named is SaXPD (Sulfolobus acidocaldarius, UniProt Q4JC68). The following applies: 1 mM Mg-ATP, pH 6.5, 45 °C.
Series [1] has as its target T1, AfXPB (Archaeoglobus fulgidus, UniProt O29889).
T1 sequence (O29889 1-452): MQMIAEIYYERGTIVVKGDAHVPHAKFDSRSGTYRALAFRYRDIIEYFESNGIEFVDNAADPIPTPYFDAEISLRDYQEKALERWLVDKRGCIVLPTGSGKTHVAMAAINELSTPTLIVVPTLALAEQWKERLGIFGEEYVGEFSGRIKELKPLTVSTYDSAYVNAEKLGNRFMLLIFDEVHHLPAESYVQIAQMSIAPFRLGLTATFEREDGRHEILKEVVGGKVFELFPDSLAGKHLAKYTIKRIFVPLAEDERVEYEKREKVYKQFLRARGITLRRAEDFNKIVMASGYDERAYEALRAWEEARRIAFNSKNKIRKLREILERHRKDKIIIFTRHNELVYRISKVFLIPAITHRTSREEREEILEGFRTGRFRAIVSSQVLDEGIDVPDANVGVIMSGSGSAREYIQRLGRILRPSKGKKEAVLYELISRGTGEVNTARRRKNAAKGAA
The series can be described thus: gel mobility shift, inhibition of […]-G4 DNA binding.

The target of series [2] is T1, AfXPB. Described as above. The following applies: no Mg2+, pH 7.9, 50 °C; inhibits G4 DNA binding.
Series [3] deals with T2, XPB (AfXPB) WT (Archaeoglobus fulgidus, UniProt O29889 1-452).
T2 sequence: T1 sequence (O29889 1-452)
The series can be described thus: EMSA.

The next series has as its target T3, AfXPB K101R (Archaeoglobus fulgidus, UniProt O29889 1-452, K101R).
T3 sequence: T1 sequence (O29889 1-452) with K101R
The series can be described thus: EMSA.

Series [4] has as its target T2, XPB (AfXPB) WT. The series can be described thus: EMSA. This is another data set of the same source.
The next series deals with T4, XPD (SaXPD) (Sulfolobus acidocaldarius, UniProt Q4JC68 1-551).
T4 sequence: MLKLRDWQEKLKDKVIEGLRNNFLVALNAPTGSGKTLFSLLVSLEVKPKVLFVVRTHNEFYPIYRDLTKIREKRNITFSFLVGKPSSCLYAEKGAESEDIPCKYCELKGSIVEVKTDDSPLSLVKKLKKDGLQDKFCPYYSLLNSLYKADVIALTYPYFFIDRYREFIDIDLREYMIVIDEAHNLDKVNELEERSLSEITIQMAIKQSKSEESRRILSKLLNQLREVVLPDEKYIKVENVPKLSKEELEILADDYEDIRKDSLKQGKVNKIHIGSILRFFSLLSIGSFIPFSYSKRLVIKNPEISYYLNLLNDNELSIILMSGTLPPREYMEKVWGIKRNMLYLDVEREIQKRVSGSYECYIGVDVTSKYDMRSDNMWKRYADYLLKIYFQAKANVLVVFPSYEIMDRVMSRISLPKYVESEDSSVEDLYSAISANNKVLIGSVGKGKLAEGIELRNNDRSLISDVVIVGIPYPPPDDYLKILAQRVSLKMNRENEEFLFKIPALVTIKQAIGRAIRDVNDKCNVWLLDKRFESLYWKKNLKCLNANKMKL
Kind of series: EMSA.

On to `Nc1ncnc2c1ncn2[C@@H]1O[C@H](COP(=O)(O)OP(=O)(O)OP(=O)(O)O)[C@@H](O)[C@H]1O` [ATP], for which the “32P-G4 DNA unwinding assay, native gel” value on SaXPD is reported as “robust G4 DNA unwinding activity in the presence of ATP but not ATP-γS”.
As to `Nc1ncnc2c1ncn2[C@@H]1O[C@H](COP(=O)(O)OP(=O)(O)O)[C@@H](O)[C@H]1O` [ADP], the Ki on AfXPB [1] was ~4 mM.
On to `Nc1ncnc2c1ncn2[C@@H]1O[C@H](COP(=O)(O)OP(=O)(O)OP(O)(O)=S)[C@@H](O)[C@H]1O` [ATP-γS], for which the “inhibition of G4 DNA binding” value at AfXPB [2] is “ATP-γS similarly inhibited G4 DNA binding, so inhibition did not depend upon ATP hydrolysis”.

B1: ssDNA (ssDNA)
DNA: AGAATGGAGCAGGTGCGCTGCGAGCAGTG
In the case of B1, the binding result with XPB (AfXPB) WT [3] was “no binding”.

B2: dsDNA (dsDNA)
DNA 1: AGAATGGAGCAGGTGCGCTGCGAGCAGTG
DNA 2: CACTGCTCGCAGCGCACCTGCTCCATTCT
Take B2: the binding result with XPB (AfXPB) WT [3] is listed as “no binding”.

B3: G4 DNA (TP oligonucleotide) (structured_DNA)
DNA: TGGACCAGACCTAGCAGCTATGGGGGAGCTGGGGAAGGTGGGAATGTGA
With B3, the binding result was “no binding” in the series with AfXPB K101R, “binds” in the series with XPB (AfXPB) WT [4] and “binds” with XPD (SaXPD).
